The values that follow come from article PMC6400189, “A three-domain copper-nitrite reductase with a unique sensing loop” (IUCrJ, 2019).

For orientation: stoichiometry N means a count of units in the complex or per binding partner. As usually defined, the Km is the concentration of substrate that gives half-maximal velocity. In general, kcat refers to the maximal rate divided by the concentration of active sites.

The target of data set [1] is Copper-containing nitrite reductase (NirK) from Thermus scotoductus SA-01 (Thermus scotoductus SA-01). As to the kind of experiment: crystal structure; twinned H3 crystals with one protomer in the asymmetric unit; trimer by the crystallographic threefold axis; data not shown.
For data set [2] the target is unchanged. Nature of the data set: SEC; Superdex 200 10/300 column, 150 mM Tris-HCl pH 7.6, 0.5 ml/min, calibrated with mass markers; subunit mass by SDS-PAGE. (In gel filtration, larger molecules generally elute earlier.)
The target is the same in data set [3]. As to the kind of experiment: crystal structure; C121 crystal with the whole homotrimer in the asymmetric unit, 1.63 Å; 0.2 M CaCl2, 0.1 M HEPES sodium pH 7.5, 28% PEG 400, 16°C.
Substrate in data set [4]: O=NO
Nature of the data set: nitrite reductase kinetics, methyl viologen standard assay. Type of data set: biochemical, Thermus scotoductus. Particulars: methyl viologen (dithionite-reduced) as artificial electron donor per standard NirK assay; apparent constant.

Regarding “Copper-containing nitrite reductase (NirK) from Thermus scotoductus SA-01 (enzyme)”, the stoichiometry N in data set [1], in data set [2] and in data set [3] was 3 in each case.

B1: TsNirK (Thermus scotoductus SA-01) (protein)
chain: AERHFTLEARSSIFEVDQGVYLRGFSFNDMSPGPMLVVEEGDTVHITLRNLDNVTHGLSIHAANTQTSRFLGNVQPGETREFSFTADFPGVFMYHCAPGGHGIMAHTMGGQFGMIVVEPKEKYRMERELGRGPDLKLYIIQSEAYASGRDFYDGKALYVMFNGRNFRYVDEPIPVRPGDYLRIYFLNVGPNLTSTLHVVGGIFEYMYYQGNPKNLVVGAQTALAGPSDSWVIEWRVPPVEGDYTLVTHVFGTAIKGALGILRAKKDAPRIPEVRAEGVPGVKEIPASAKRVVDPYGLASPGHEHTVRVPLDPALAQPVAVGAKALEPLPVTVQMVGNSFYPKVLEIPVGTTVEFVNEDVFDLLEGERTGRHDAVVIDVQGPEPFVTPKLGHGERYRITFTKPGEYVYICSIHPYMKGIIRVYEPLSQRADSQ
notes: codon-optimised gene in pET-22b(+), E. coli BL21(DE3); 451-residue subunits (~50 kDa), homotrimer, three Cu per subunit; domains Ala20-Glu137, Leu154-Ala282, Arg309-Leu444
In the case of B1, in data set [4], the Michaelis constant (Km) was 27 ± 2 µM and the kcat was 65 ± 1 s⁻¹.
